Measured values published in patent US20170112792.

How the values were obtained:
Erk1, P27361 = target: T1, Erk1, P27361
T1 chain: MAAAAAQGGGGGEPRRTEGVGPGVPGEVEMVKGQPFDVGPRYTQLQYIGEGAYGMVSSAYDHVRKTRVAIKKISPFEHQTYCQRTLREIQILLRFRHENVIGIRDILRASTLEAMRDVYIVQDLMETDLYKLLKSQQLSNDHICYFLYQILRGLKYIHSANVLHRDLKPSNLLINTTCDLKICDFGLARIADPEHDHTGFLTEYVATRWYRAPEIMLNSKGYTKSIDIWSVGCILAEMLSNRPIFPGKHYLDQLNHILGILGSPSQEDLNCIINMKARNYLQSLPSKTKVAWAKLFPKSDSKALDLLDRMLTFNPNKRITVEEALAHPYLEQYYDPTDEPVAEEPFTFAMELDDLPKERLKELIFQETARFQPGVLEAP

Chain of Erk2, P28482 (P28482 whole entry): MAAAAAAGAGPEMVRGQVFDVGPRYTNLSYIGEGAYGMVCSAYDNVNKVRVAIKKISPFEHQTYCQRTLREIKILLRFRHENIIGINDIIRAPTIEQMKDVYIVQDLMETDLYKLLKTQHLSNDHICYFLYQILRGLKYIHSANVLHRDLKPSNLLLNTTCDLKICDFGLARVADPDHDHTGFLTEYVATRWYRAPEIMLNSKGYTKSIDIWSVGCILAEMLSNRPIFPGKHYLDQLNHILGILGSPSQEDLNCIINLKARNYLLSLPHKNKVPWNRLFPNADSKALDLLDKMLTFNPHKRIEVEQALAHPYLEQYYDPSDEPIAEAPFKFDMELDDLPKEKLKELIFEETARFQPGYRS

B1: Flag-Rab2A (protein)
chain: MAYAYLFKYIIIGDTGVGKSCLLLQFTDKRFQPVHDLTIGVEFGARMITIDGKQIKLQIWDTAGQESFRSITRSYYRGAAGALLVYDITRRDTFNHLTTWLEDARQHSNSNMVIMLIGNKSDLESRREVKKEEGEAFAREHGLIFMETSAKTASNVEEAFINTAKEIYEKIQEGVFDINNEANGIKIGPQHAATNATHAGNQGGQQAGGGCC
Question: For B1, which Erk1/2 phosphorylation (Erk2, P28482) is on record?
Answer: Flag-Rab2A expression restored Erk1/2 phosphorylation in a dose-dependent manner

Question: And the Erk1/2 phosphorylation (Erk1, P27361)?
Answer: Flag-Rab2A expression restored Erk1/2 phosphorylation in a dose-dependent manner
